Consider two molecules from article PMC10804554, “The DNA damage sensor ATM kinase interacts with the p53 mRNA and guides the DNA damage response pathway” (Molecular Cancer, 2024).

The target of the experiment is T1, recombinant MDM2 protein (UniProt Q00987 1-491).
T1 construct: MDM2 E3 ubiquitin ligase, recombinant version used in sandwich ELISA; Source, limits and tags of the recombinant MDM2 may stand in Supplementary Methods; source: recombinant
Briefly: ELISA; protein-protein sandwich ELISA on 96-well plates with his-tagged recombinant FAT or PI3K domain and recombinant MDM2; details in Supplementary Methods. In general terms: ELISA stands for enzyme-linked immunosorbent assay.

T1 sequence (Q00987 whole entry): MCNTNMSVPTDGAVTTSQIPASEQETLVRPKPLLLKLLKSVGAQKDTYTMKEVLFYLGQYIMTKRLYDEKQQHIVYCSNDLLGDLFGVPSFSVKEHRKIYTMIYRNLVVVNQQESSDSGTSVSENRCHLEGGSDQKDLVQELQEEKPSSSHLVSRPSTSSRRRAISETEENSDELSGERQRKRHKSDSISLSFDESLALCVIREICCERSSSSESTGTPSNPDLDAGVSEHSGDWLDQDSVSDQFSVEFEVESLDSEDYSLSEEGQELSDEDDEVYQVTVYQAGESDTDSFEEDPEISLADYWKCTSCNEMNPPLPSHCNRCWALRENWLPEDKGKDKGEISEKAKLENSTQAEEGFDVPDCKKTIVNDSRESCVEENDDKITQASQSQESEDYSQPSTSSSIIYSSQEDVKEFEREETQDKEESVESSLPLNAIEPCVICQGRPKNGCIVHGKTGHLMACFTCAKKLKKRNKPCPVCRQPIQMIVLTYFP

B1: recombinant FAT domain of ATM (rFAT), his-tagged (domain or fragment)
chain: EVAKVAQSCAAHFTALLYAEIYADKKSMDDQEKRSLAFEEGSQSTTISSLSEKSKEETGISLQDLLLEIYRSIGEPDSLYGCGGGKMLQPITRLRTYEHEAMWGKALVTYDLETAIPSSTRQAGIIQALQNLGLCHILSVYLKGLDYENKDWCPELEELHYQAAWRNMQWDHCTSVSKEVEGTSYHESLYNALQSLRDREFSTFYESLKYARVKEVEEMCKRSLESVYSLYPTLSRLQAIGELESIGELFSRSVTHRQLSEVYIKWQKHSQLLKDSDFSFQEPIMALRTVILEILMEKEMDNSQRECIKDILTKHLVELSILARTFKNTQLPERAIFQIKQYNSVSCGVSEWQLEEAQVFWAKKEQSLALSILKQMIKKLDASCAANNPSLKLTYTECLRVCGNWLAETCLENPAVIMQTYLEKAVEVAGNYDGESSDELRNGKMKAFLSLARFSDTQYQRIENYMKSSEFENKQALLKRAKEEVGLLREHKIQTNRYTVKVQRELELDELALRALKEDRKRFLCKAVENYINCLLSGEEHDMWVFRLCSLWLENSGVSEVNGMMKRDGMKIPTYKFLPLMYQLAARMGTKMMGGLGFHEVLNNLISRISMDHPHHTLFIILALANA
The term Kd denotes a measure of binding affinity in units of concentration. Take B1: the Kd is 30 nM.

B2: recombinant PI3K domain of ATM (rPI3K), his-tagged (domain or fragment)
chain: FKAEFRLAGGVNLPKIIDCVGSDGKERRQLVKGRDDLRQDAVMQQVFQMCNTLLQRNTETRKRKLTICTYKVVPLSQRSGVLEWCTGTVPIGEFLVNNEDGAHKRYRPNDFSAFQCQKKMMEVQKKSFEEKYEVFMDVCQNFQPVFRYFCMEKFLDPAIWFEKRLAYTRSVATSSIVGYILGLGDRHVQNILINEQSAELVHIDLGVAFEQGKILPTPETVPFRLTRDIVDGMGITGVEGVFRRCCEKTMEVMRNSQETLLTIVEVLLYDPLFDWTMNPLKALYLQQRPEDETELHPTLNADDQECKRNLSDI
Regarding B2, the Kd came to 186 nM.
